What is called EC50 is the concentration that produces a half-maximal response. One may read the Kd as the concentration at which binding is half-saturated.

The record followed here is patent EP4644419A1 (Hangzhou Zhongmeihuadong Pharmaceutical Co., Ltd., dated 2025).

Assay [1] has as its target T1, human CD112R antigen protein huCD112R-His (Acro Biosysterm, PVG-H52H4) (human, UniProt Q6DKI7 41-171).
T1 construct: purchased; also called human antigen protein; not shown: His tag
T1 sequence (looked up): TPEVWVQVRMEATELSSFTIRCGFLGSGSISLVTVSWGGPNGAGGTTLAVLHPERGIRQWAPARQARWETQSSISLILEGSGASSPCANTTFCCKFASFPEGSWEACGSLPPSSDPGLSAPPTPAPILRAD
Nature of the assay: ELISA, huCD112R-His coated on plate. In general terms: An ELISA detects its analyte on a solid surface through an enzyme-linked reagent.

The target of assay [2] is T2, monkey antigen protein (monkey CD112R, Uniprot ID: A0A2K5WVV8) (monkey, UniProt A0A2K5WVV8 41-171).
T2 sequence: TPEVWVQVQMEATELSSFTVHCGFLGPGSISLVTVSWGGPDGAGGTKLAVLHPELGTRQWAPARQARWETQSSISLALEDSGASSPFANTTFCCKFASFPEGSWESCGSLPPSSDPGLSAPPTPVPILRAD
Nature of the assay: ELISA, monkey antigen protein (as Example 6.1).

The target in assay [3] is T3, human CD112R on GS-J2C/CD112R effector cells (human, UniProt Q6DKI7 1-326).
T3 sequence (looked up): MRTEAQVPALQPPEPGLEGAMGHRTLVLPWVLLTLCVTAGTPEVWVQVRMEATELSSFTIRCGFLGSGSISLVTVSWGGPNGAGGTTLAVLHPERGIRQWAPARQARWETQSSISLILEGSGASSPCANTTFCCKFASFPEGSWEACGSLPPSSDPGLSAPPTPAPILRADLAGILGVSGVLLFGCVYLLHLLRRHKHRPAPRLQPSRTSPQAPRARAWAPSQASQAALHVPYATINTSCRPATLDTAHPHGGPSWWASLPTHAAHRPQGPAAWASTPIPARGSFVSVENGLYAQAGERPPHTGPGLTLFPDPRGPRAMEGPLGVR
Nature of the assay: cell-based or functional assay.

Assay [4] concerns the target T1, human CD112R antigen protein …. Description: SPR (Biacore X100), antibody captured on Protein A chip, huCD112R-His as analyte, 1:1 Langmuir.
Assay [5] addresses T4, human CD112R on antigen-specific CD8+ T cells (human, UniProt Q6DKI7 1-326).
T4 sequence (looked up): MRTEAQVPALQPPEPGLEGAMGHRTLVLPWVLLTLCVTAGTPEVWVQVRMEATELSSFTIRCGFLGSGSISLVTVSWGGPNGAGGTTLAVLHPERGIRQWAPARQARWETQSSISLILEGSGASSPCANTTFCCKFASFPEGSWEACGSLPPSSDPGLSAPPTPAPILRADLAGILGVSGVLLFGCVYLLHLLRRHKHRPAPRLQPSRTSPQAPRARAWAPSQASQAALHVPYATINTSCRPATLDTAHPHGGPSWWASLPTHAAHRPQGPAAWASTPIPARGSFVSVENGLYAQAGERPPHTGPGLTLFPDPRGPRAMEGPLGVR
Description: cell-based or functional assay.

B1: C1 (antibody, human IgG1, kappa, V domains shown)
VH: QVHLQQSGPELVKPGASLKISCKASGYTFTDYYLNWVKQRPGQGLEWIGWIFPGSESTFYNEKFKGKATLTVDKSSSTAYMLLNSLTSEDSAVYFCTRDGGLRGPFDYWGQGTTLTVSS
VL: DIQLTQSPSSLSASLGGKVTITCKASQDINKYIAWCQHKPGKGPRLLIHYTSTLHPGIPSRFSGSGSGRDYSFSISNLEPEDSATYYCLQYDYLLTFGGGTKLEIKR
As for B1, the EC50 in assay [1] is 0.075 nM. This molecule returned an EC50 in assay [2] of 0.116 nM. Besides, the “EC50 (Blocking effects of the antibodies, reporter gene method)” value in assay [3] was found to be 0.045 µg/mL. The molecule also returned a Kd in assay [4] of 0.905 nM. For the same molecule, in assay [5], the “IFN-γ(pg/ml) at 0.5µg/ml antibody” value is 543 pg/mL, the “IFN-γ(pg/ml) at 5µg/ml antibody” value came out at 641 pg/mL and the “IFN-γ(pg/ml) at 50µg/ml antibody” value is 755 pg/mL.

B2: C63 (antibody, human IgG1, kappa, V domains shown)
VH: EVMLVESGGGLVKPGGSLKLSCAASGFIFSSYIMSWVRQTPEKRLEWVATIRGGGGNTYYLDSVKGRFIISRDNAKNNLYLQMSSLRSEDTALYYCARHEDYEWYAMDNWGQGTSVTVSS
VL: QIVLTQSPAIMSASPGEKVTLTCSARSSVSYMYWYQQKPGSSPKLLIYDTSNLASGVPVRFSGSGSGTSYSLTISRMEAEDAATYYCQQWSSYPLTFGAGTKLELKR
As for B2, the EC50 in assay [1] came out at 0.054 nM; in assay [2], 0.09 nM. In assay [3], the “EC50 (Blocking effects of the antibodies, reporter gene method)” value stood at 0.023 µg/mL. The same molecule yielded a Kd in assay [4] of 0.488 nM.

B3: anti-CD112R antibody CHA.7.518 (antibody, V domains shown)
VH: QVQLVQSGAEVKKPGASVKVSCKASGYTFTDYNINWVRQAPGQGLEWMGYIYPYIGGSGYAQKFQGRVTMTRDTSTSTVYMELSSLRSEDTAVYYCAREDKTARNAMDYWGQGTLVTVSS
VL: DIQMTQSPSSLSASVGDRVTITCRVSENIYSNLAWYQQKPGKAPKLLIYEATNLAEGVPSRFSGSGSGTDFTLTISSLQPEDFATYYCQHFWGTPYTFGQGTKLEIKR
notes: synthesised according to WO/2016/134333; also called Tab-1; Tab 1
B3 returned an EC50 in assay [1] of 0.034 nM. In addition, the “EC50 (Blocking effects of the antibodies, reporter gene method)” value in assay [3] was 0.065 µg/mL. Moreover, the Kd in assay [4] was found to be 0.346 nM. Moreover, in assay [5], the “IFN-γ(pg/ml) at 0.5µg/ml antibody” value amounted to 696 pg/mL, the “IFN-γ(pg/ml) at 5µg/ml antibody” value was determined as 718 pg/mL and the “IFN-γ(pg/ml) at 50µg/ml antibody” value stood at 763 pg/mL.

B4: C12 (antibody, human IgG1, kappa, V domains shown)
VH: EVQLVASGGGLVKPGGSLKLSCAASGFTFSDYYMYWVRQTPEKRLEWVATISDGGGYTYYPDSVKGRFTISRDNDRNSLYLQMSSLKSEDTAMYYCGREDLWGQGTSVTVSS
VL: DIQMTQSPSSLSASLGERVSLTCRASQDIGSSLNWLQQEPDGTVKRLIYATSRLDSGVPKRFSGSRSGSDYSLTISSLESEDFVDYYCLQYASFPYTFGGGTKLEIKR
In assay [1], B4 came in with an EC50 of 0.155 nM. Also, in assay [2], the EC50 is 0.768 nM. For the same molecule, the “EC50 (Blocking effects of the antibodies, reporter gene method)” value in assay [3] was determined as 0.024 µg/mL. In assay [4], this molecule came in with a Kd of 2.9 nM. Also, in assay [5], the “IFN-γ(pg/ml) at 0.5µg/ml antibody” value is 608 pg/mL, the “IFN-γ(pg/ml) at 5µg/ml antibody” value was 678 pg/mL and the “IFN-γ(pg/ml) at 50µg/ml antibody” value turned out to be 824 pg/mL.

B5: C8 (antibody, human IgG1, kappa, V domains shown)
VH: EVQLVASGGGLVKPGGSLKLSCAASGFTFSDYYMFWVRQTPEKRLEWVATISDGGGYIYYPDSVKGRFTISRDNDRNSLYLQMSSLKSEDTAIYYCGREDFWGQGTSVTVSS
VL: DIQMTQSPSSLSASLGERVSLTCRASQDIGRSLNWLQQEPDGSVRRLIYATSRLDSGVPKRFSGSRSGSDYSLTISSLESEDFVDYYCLQYASFPYTFGGGTKLEIKR
B5 displayed an EC50 in assay [1] of 0.046 nM. The molecule further gave an EC50 in assay [2] of 0.047 nM. In assay [3], the “EC50 (Blocking effects of the antibodies, reporter gene method)” value came out at 0.026 µg/mL. Further, the Kd in assay [4] is 0.397 nM. In assay [5], the “IFN-γ(pg/ml) at 0.5µg/ml antibody” value turned out to be 722 pg/mL, the “IFN-γ(pg/ml) at 5µg/ml antibody” value turned out to be 783 pg/mL and the “IFN-γ(pg/ml) at 50µg/ml antibody” value amounted to 819 pg/mL.

B6: C18 (antibody, human IgG1, kappa, V domains shown)
VH: EVQLVESGGGLVKPGGSLKLSCAASGFTFSDYYMYWVRQTPEKRLEWVATISDGGGFIYYPDSVKGRFTISRDNDRNSLYLLMSSLKSEDTAMYFCGREDLWGQGTSVTVSS
VL: DIQMTQSPSSLSASLGERVSLTCRASQDIGRSLNWLQQGPDGTVKRLIYATSRLDSGVPTRFSGSRSGSDYSLTISSLESEDFVDYYCLQYASFPYTFGGGTKLEIKR
Molecule B6 gave an EC50 in assay [1] of 0.069 nM. In addition, a half-maximal effect in assay [2] (EC50) was put at 0.069 nM. Moreover, the “EC50 (Blocking effects of the antibodies, reporter gene method)” value in assay [3] is 0.034 µg/mL. Moreover, the Kd in assay [4] came out at 0.206 nM. In assay [5], the “IFN-γ(pg/ml) at 0.5µg/ml antibody” value turned out to be 748 pg/mL and the “IFN-γ(pg/ml) at 5µg/ml antibody” value stood at 802 pg/mL.

B7: C19 (antibody, human IgG1, kappa, V domains shown)
VH: EVQLVESGGGLVKPGGSLKLSCAASGFTFSDYYMYWVRQTPEKRLEWVATISDAGGYTYYPDSVKGRFTISRDNARNSLYLQMSSLKSEDTAMYFCGREDLWGQGTSVTVSS
VL: DIQMTQSPSSLSASLGERVSLTCRASQDIGYSLNWLQQEPDGSVRRLIYATSRLDSGVPKRFSGSRSGSDYSLTISSLESEDFVDYYCLQYASFPYTFGGGTKLEIKR
In assay [1], B7 yielded an EC50 of 0.043 nM. The same molecule had an EC50 in assay [2] of 0.034 nM. Also, the “EC50 (Blocking effects of the antibodies, reporter gene method)” value in assay [3] came out at 0.033 µg/mL. In assay [4], this molecule had a dissociation constant Kd of 0.567 nM. In assay [5], the “IFN-γ(pg/ml) at 0.5µg/ml antibody” value is 571 pg/mL, the “IFN-γ(pg/ml) at 5µg/ml antibody” value was found to be 744 pg/mL and the “IFN-γ(pg/ml) at 50µg/ml antibody” value stood at 829 pg/mL.

B8: C13 (antibody, human IgG1, kappa, V domains shown)
VH: EVQLQQSGPELVKPGASVKISCKASGYTFTDYFMNWVKQSHGKSLEWIGDINPNNGSPNYNQKFKGRATLTVDKSSSTAYMELRSLTSEDSAVYYCASGYFDVWGTGTTVTVSS
VL: DIVMTQSPSSLSVSAGEKVTMSCKSSQSLLNSGTQKNYLAWYQQKPGQPPKLLIYGASTRESGVPDRFTGSGSGTDFTLTISSVQAEDLAVYYCQNDHSYPWTFGGGTKLEIKR
In the case of B8, in assay [1], the EC50 amounted to 0.065 nM. In addition, in assay [2], the concentration for a half-maximal effect (EC50) is 0.059 nM. Moreover, the “EC50 (Blocking effects of the antibodies, reporter gene method)” value in assay [3] came out at 0.019 µg/mL. For the same molecule, in assay [4], binding was characterised by a dissociation constant (Kd) of 0.0218 nM. In assay [5], the “IFN-γ(pg/ml) at 0.5µg/ml antibody” value is 624 pg/mL, the “IFN-γ(pg/ml) at 5µg/ml antibody” value is 658 pg/mL and the “IFN-γ(pg/ml) at 50µg/ml antibody” value was 767 pg/mL.

B9: C11 (antibody, human IgG1, kappa, V domains shown)
VH: EVQLQQSGPELVKPGASVKISCKASGYTFTDYFMNWVRQSHGKSLEWIGDIHPNNGSPNYNQKFKGKATLTVGKSSSTAYMELRSLTSEDSAVYYCATGYFDVWGTGTTVTVSS
VL: DIVMTQSPSSLSVSAGEKVTMSCKSSQSLLNSGNQKNYLAWYQQKPGQPPKLLIYGASTRESGVPDRFTGSGSGTDFTLTISSVQAEDLAVYYCQNDHSYPWTFGGGTKLEIKR
Regarding B9, a half-maximal response in assay [1] (EC50) required 0.056 nM. In assay [2], this molecule showed a concentration for a half-maximal effect (EC50) of 0.079 nM. The “EC50 (Blocking effects of the antibodies, reporter gene method)” value in assay [3] was found to be 0.021 µg/mL. Besides, in assay [4], the affinity, expressed as Kd, was 0.0622 nM. For the same molecule, in assay [5], the “IFN-γ(pg/ml) at 0.5µg/ml antibody” value came to 676 pg/mL, the “IFN-γ(pg/ml) at 5µg/ml antibody” value worked out at 747 pg/mL and the “IFN-γ(pg/ml) at 50µg/ml antibody” value amounted to 617 pg/mL.

B10: C4 (antibody, human IgG1, kappa, V domains shown)
VH: EVQLQQSGPELVKPGASVKISCKASGYTFTDYFMNWVKQSHGKSLEWIGDIIPNNDSPNYNQKFKGKATLTVDKSSNTAYMELRSLTSEDSAVYYCASGYFDVWGTGTTVTVSS
VL: DIVMTQSPSSLSVSAGEKVTMSCKSSQSLLNSGNQKNFLAWYQQKPGQPPKLLIYGTSTRESGVPDRFTGSGSGTDFTLTISSVQAEDLAVYYCQNDHSYPWTFGGGTKLEIKR
The molecule B10 came in with an EC50 in assay [1] of 0.032 nM. This molecule also had an EC50 in assay [2] of 0.059 nM. Further, in assay [3], the “EC50 (Blocking effects of the antibodies, reporter gene method)” value is 0.024 µg/mL. Moreover, the Kd in assay [4] stood at 0.0141 nM. Further, in assay [5], the “IFN-γ(pg/ml) at 0.5µg/ml antibody” value is 663 pg/mL, the “IFN-γ(pg/ml) at 5µg/ml antibody” value was determined as 740 pg/mL and the “IFN-γ(pg/ml) at 50µg/ml antibody” value is 875 pg/mL.
